Source: patent publication US20240374746A1, “SIRP-ALPHA ANTIBODIES AND CONJUGATES” (Tallac Therapeutics, Inc., priority 2021, published 2024)

Columns and labels:
[1] = test system: RENCA renal carcinoma cells; experiment: RENCA syngeneic tumor model, mIgG2a versus mIgG1 Fc conjugates; type: in vivo, mouse; settings: BALB/c mice, 10 mg/kg i.p., 3 doses every 3 days, compared to conjugate with the mIgG1 Fc domain
Description: Experiments using anti-SIRP-α antibody-CpG oligonucleotide conjugate used the mouse CpG oligo 4523 (SEQ ID NO: 121) conjugated to anti-SIRP-α antibody comprising a heavy chain comprising the sequence of […] (SEQ ID NO:90) for mIgG2a or […] (SEQ ID NO:91) for mIgG1 and a light chain comprising the sequence of […] (SEQ ID NO:111). The sequence of the 4523 murine CpG oligonucleotide is tucgtcgtgacgtt-c3, where lower case indicates phosphothioate linkages, bold indicates iodo-uridine, and underlining indicates phosphotriester linker (SEQ ID NO:121). RENCA renal carcinoma cells (ATCC) were cultured in Complete RPMI 1640 (RPMI 1640+10% FBS (Gibco)) at 37° C. and 5% CO2. Cells were detached with Trypsin 0.25% (Gibco) and washed twice with RPMI 1640 (Gibco). Cells were resuspended at 20E6/mL in RPMI 1640 and kept on ice until use. 100 uL of suspended cells were subcutaneously implanted into the right flank of 6-week-old female BALB/c mice (Charles River). Tumor size was measured and recorded twice a week with calipers starting 9 days post implantation until duration of the study, approximately 35 days later. Tumor volume was calculated using the following formula: (length×width×width)/2. Once tumors reached on average 75 mm^3, […], mice were randomized by tumor size and treatments were initiated. […]

[2] = test system: MC38 overexpressing mouse SIRPα and parental MC38 colon carcinoma cells; experiment: Mouse syngeneic MC38 model with SIRP-α-positive and SIRP-α-negative tumor cells; type: in vivo; settings: 1 mg/kg i.p. twice, three days apart; MC38 overexpressing SIRP-α compared with parental MC38
Experimental: Parental MC38 colon carcinoma cells (ATCC) and MC38 overexpressing mouse SIRPα were cultured in Complete Dulbecco's Modified Eagle's Medium (Gibco) (DMEM, 10% FBS, 1% Pen/Strep, 1% Glutmax, 1% sodium pyruvate) at 37° C. and 5% CO2. Cells were detached with Trypsin 0.25% (Gibco) and washed twice with DMEM. Cells were resuspended at 20E6/mL in DMEM and kept on ice until use. 100 μL of suspended cells were subcutaneously implanted into the right flank of 6-week-old female C57/BL6 mice (Charles River). Tumor size was measured and recorded twice a week with calipers starting 4 days post implantation until duration of the study, approximately 17 days later. Tumor volume was calculated using the following formula: (length×width×width)/2. Once MC38 parental and MC38 SIRP-α tumors reached on average 94 mm^3 to 88 mm^3, respectively, approximately 4 days post implantation, mice were randomized by tumor size and treatments were initiated. The anti-SIRP-α mIgG1 conjugated to mTCpG (heavy chain comprising the sequence of SEQ ID NO:91 and light chain comprising the sequence of SEQ ID NO: 111, conjugated to mouse CpG oligo 4523 (SEQ ID NO: 121)) was administered intraperitoneally 2 doses every 3 days at 1 mg/kg.

[3] = test system: RENCA renal carcinoma cells; experiment: RENCA mouse syngeneic tumor model refractory to PD-1; type: in vivo; settings: 10 mg/kg i.p. three times, three days apart, single agent
Experimental: RENCA renal carcinoma cells line (ATCC) was cultured in Complete RPMI (RPMI, 10% FBS, 1× Pen/Strep, 1× Glutamax) at 37° C. and 5% CO2. Cells were detached with Trypsin 0.25% (Gibco) and washed twice with RPMI 1640 (Gibco). Cells were resuspended at 20E6/mL in RPMI 1640 and kept on ice until use. 100 μL of suspended cells were subcutaneously implanted into the right flank of 6-week-old female BALB/c mice (Charles River). Tumor size was measured and recorded twice a week with calipers starting 9 days post implantation until duration of the study, approximately 27 days later. Tumor volume was calculated using the following formula: (length×width×width)/2. Once tumors reached on average 56 mm^3, approximately 9 days post implantation, mice were randomized by tumor size and treatments were initiated. Anti-mSIRP-α conjugated to mT-CpG (heavy chain comprising the sequence of SEQ ID NO:91 and light chain comprising the sequence of SEQ ID NO:111, conjugated to mouse CpG oligo 4523 (SEQ ID NO:121)) was administered intraperitoneally 3 doses every 3 days at 10 mg/kg. In the anti-PD-1 RMP1-14 (BioXcell) treated cohort, dosing was initiated on day 10 post-tumor implantation once tumors reached on average 52 mm. A total of 3 doses 3 days apart at 10 mg/kg were administrated.

[4] = test system: CT26 mouse colon carcinoma cells; experiment: CT26 mouse syngeneic tumor model, alone and in combination with anti-PD-1; type: in vivo
Experimental: CT26 mouse colon carcinoma cells (ATCC) were cultured in Complete RPMI (RPMI, 10% FBS, 1× Pen/Strep, 1× Glutamax) at 37° C. and 5% CO2. Once cells were 80% confluent, cells were detached with Trypsin 0.25% (Gibco) and washed twice with RPMI 1640 (Gibco). Cells were resuspended at 20E6/mL in RPMI 1640 and kept on ice until use. 100 μL of suspended cells were subcutaneously implanted into the right flank of 6 week old female BALB/c mice (Charles River). Tumor size was measured and recorded twice a week with calipers starting 7 days post implantation until duration of the study, approximately 27 days later. Tumor volume was estimated using the following formula: (length×width×width)/2. Once tumors reached 110 mm^3, approximately 9 days post implantation, mice were randomized by tumor size and treatments were initiated. Anti-mSIRP-α antibody-CpG oligonucleotide conjugate with a heavy chain comprising the sequence of SEQ ID NO:91 and a light chain comprising the sequence of SEQ ID NO: 111, conjugated to mouse CpG oligo 4523 (SEQ ID NO:121), […], 4 days apart, anti-PD-1 […] (BioXcell) at 10 mg/kg twice, 4 days apart as a single agent or in combination with anti-mSIRP-α antibody-CpG oligonucleotide conjugate for a total of two doses 4 days apart and anti-PD-1 twice, two days post anti-mSIRP-α antibody-CpG oligonucleotide conjugate.

[5] = test system: B16-F10 melanoma cell line; experiment: B16F10 mouse syngeneic tumor model, combination with anti-PD-L1; type: in vivo; settings: 30 mg/kg i.p. in combination with anti-PD-L1 antibody 10 mg/kg, compared to either alone
Experimental: B16-F10 melanoma cell line (ATCC) was cultured in Complete Dulbecco's Modified Eagle's Medium (DMEM, 10% FBS, 1% Pen/Strep, 1% Glutamax, 1% Sodium Pyruvate) at 37° C. and 5% CO2. Cells were detached with Trypsin 0.25% (Gibco) and washed twice with DMEM (Gibco). Cells were resuspended at 6E6/mL in DMEM and kept on ice until use. 100 μL of suspended cells were subcutaneously implanted into the right flank of 6-week-old female C57BL/6 mice (Charles River). Tumor size was measured and recorded 2-3 times a week with calipers starting 7 days post-implantation until duration of the study, approximately 17 days later. Tumor volume was calculated using the following formula: (length×width×width)/2. Once tumors reached on average 55 mm^3, approximately 7 days post-implantation, mice were randomized by tumor size and treatments were initiated. The conjugates were administered intraperitoneally 2 doses every 3 days at 30 mg/kg. Anti-PD-L1 was administered intraperitoneally 2 doses every 3 days at 10 mg/kg. […] The anti-mSIRP-α antibody conjugate comprised murine reactive mT-CpG oligonucleotide (SEQ ID NO: 121) conjugated to an anti-SIRP-α antibody comprising a heavy chain comprising the sequence of SEQ ID NO:91 and a light chain comprising the sequence of SEQ ID NO:111. […]

B1: conjugate with the mIgG2a Fc: anti-SIRP-α antibody, heavy chain SEQ ID NO:90 and light chain SEQ ID NO:111, conjugated to mouse CpG oligo 4523 (SEQ ID NO:121) (conjugate)
heavy: DVQLVESGGGVVRPGESLRLSCAASGFTFSSNAMSWVRQAPGKGLEWLAGISAGGSDTYYPASVKGRFTISRDNSKNTLYLQMNTLTAEDTAVYYCARETWNHLFDYWGLGTLVTVSSAKTTAPSVYPLAPVCGDTTGSSVTLGCLVKGYFPEPVTLTWNSGSLSSGVHTFPAVLQSDLYTLSSSVTVTSSTWPSQSITCNVAHPASSTKVDKKIEPRGPTIKPCPPCKCPAPNLLGGPSVFIFPPKIKDVLMISLSPIVTCVVVDVSEDDPDVQISWFVNNVEVHTAQTQTHREDYNSTLRVVSALPIQHQDWMSGKEFKCKVNNKDLPAPIERTISKPKGSVRAPQVYVLPPPEEEMTKKQVTLTCMVTDFMPEDIYVEWTNNGKTELNYKNTEPVLDSDGSYFMYSKLRVEKKNWVERNSYSCSVVHEGLHNHHTTKSFSRTPGRPQGFGPP
light: ALTQPASVSANPGETVKIACSGGDYYSYYYGWYQQKAPGSALVTVIYSDDKRPSDIPSRFSGSASGSTATLTITGVRAEDEAVYYCGGYDYSTYANAFGAGTTLTVLGQPKSSPSVTLFPPSSEELETNKATLVCTITDFYPGVVTVDWKVDGTPVTQGMETTQPSKQSNNKYMASSYLTLTARAWERHSSYSCQVTHEGHTVEKSLSRADCS
DNA: ttcgtcgtgacgtt
modifications: antibody conjugated to CpG oligonucleotide; modified_base 2 OTHER; iodo-uridine; modified_base 1..5 OTHER; phosphorothioate linkages; misc_feature 5^6 phosphotriester linker; modified_base 6..14 OTHER; misc_feature 14 3' spacer C3
anti-tumor inhibition [1]: reduced anti-tumor inhibition

B2: anti-mSIRP-α antibody conjugated with murine reactive mT-CpG: anti-SIRP-α mIgG1, heavy chain SEQ ID NO:91 and light chain SEQ ID NO:111, conjugated to mouse CpG oligo 4523 (SEQ ID NO:121) (conjugate)
heavy: DVQLVESGGGVVRPGESLRLSCAASGFTFSSNAMSWVRQAPGKGLEWLAGISAGGSDTYYPASVKGRFTISRDNSKNTLYLQMNTLTAEDTAVYYCARETWNHLFDYWGLGTLVTVSSAKTTPPSVYPLAPGSAAQTNSMVTLGCLVKGYFPEPVTVTWNSGSLSSGVHTFPAVLQSDLYTLSSSVTVPSSTWPSETVTCNVAHPASSTKVDKKIVPRDCGCKPCICTVPEVSSVFIFPPKPKDVLTITLTPKVTCVVVDISKDDPEVQFSWFVDDVEVHTAQTQPREEQFNSTFRSVSELPIMHQDWLNGKEFKCRVNSAAFPAPIEKTISKTKGRPKAPQVYTIPPPKEQMAKDKVSLTCMITDFFPEDITVEWQWNGQPAENYKNTQPIMDTDGSYFIYSKLNVQKSNWEAGNTFTCSVLHEGLHNHHTEKSLSHSPGRPQGFGPP
light: B1 light
DNA: ttcgtcgtgacgtt
modifications: antibody conjugated to CpG oligonucleotide; modified_base 2 OTHER; iodo-uridine; modified_base 1..5 OTHER; phosphorothioate linkages; misc_feature 5^6 phosphotriester linker; modified_base 6..14 OTHER; misc_feature 14 3' spacer C3
anti-tumor activity [2]: superior anti-tumor activity
anti-tumor response [3]: potent, single-agent anti-tumor response
tumor growth inhibition ([4]; 1 mg/kg i.p., single agent): robust tumor growth inhibtion
anti-tumor response ([4]; suboptimal dose 0.3 mg/kg in combination with anti-PD-1 antibody 10 mg/kg, compared to either alone): enhanced anti-tumor response
anti-tumor response [5]: enhanced anti-tumor response
